Data reported in IntAct's records for PubMed 20959446.

B1: CMRF35-like molecule 6 (Homo sapiens), Q08708 (parent)
chain: MTARAWASWRSSALLLLLVPGYFPLSHPMTVAGPVGGSLSVQCRYEKEHRTLNKFWCRPPQILRCDKIVETKGSAGKRNGRVSIRDSPANLSFTVTLENLTEEDAGTYWCGVDTPWLRDFHDPIVEVEVSVFPAGTTTASSPQSSMGTSGPPTKLPVHTWPSVTRKDSPEPSPHPGSLFSNVRFLLLVLLELPLLLSMLGAVLWVNRPQRSSRSRQNWPKGENQ
B2: CMRF35-like molecule 7 (Homo sapiens), A8K4G0 (parent)
chain: MWLPPALLLLSLSGCFSIQGPESVRAPEQGSLTVQCHYKQGWETYIKWWCRGVRWDTCKILIETRGSEQGEKSDRVSIKDNQKDRTFTVTMEGLRRDDADVYWCGIERRGPDLGTQVKVIVDPEGAASTTASSPTNSNMAVFIGSHKRNHYMLLVFVKVPILLILVTAILWLKGSQRVPEEPGEQPIYMNFSEPLTKDMAT
partner: B1 chain
B3: CMRF35-like molecule 6 (Homo sapiens), Q08708 (parent)
chain: B1 chain
partner: B2 chain

Variants of: B1
Conditions: with fcerg_human FCER1G

Variant | effect of a mutation on the interaction
MTARAWASWRSSALLLLLVPGYFPLSHPMTVAGPVGGSLSVQCRYEKEHRTLNKFWCRPPQILRCDKIVETKGSAGKRNGRVSIRDSPANLSFTVTLENLTEEDAGTYWCGVDTPWLRDFHDPIVEVEVSVFPAGTTTASSPQSSMGTSGPPTKLPVHTWPSVTRKDSPEPSPHPGSLFSNVRFLLLVLLVLPLLLSMLGAVLWVNRPQRSSRSRQNWPKGENQ [E191V] | with no effect

Variants of: B2
Conditions: with clm6_human CD300C, Q08708

Variant | effect of a mutation on the interaction
MWLPPALLLLSLSGCFSIQGPESVRAPEQGSLTVQCHYKQGWETYIKWWGRGVRWDTCKILIETRGSEQGEKSDRVSIKDNQKDRTFTVTMEGLRRDDADVYWCGIERRGPDLGTQVKVIVDPEGAASTTASSPTNSNMAVFIGSHKRNHYMLLVFVKVPILLILVTAILWLKGSQRVPEEPGEQPIYMNFSEPLTKDMAT [C50G] | with no effect
MWLPPALLLLSLSGCFSIQGPESVRAPEQGSLTVQCHYKQGWETYIKWWCRGVRWDTCKILIETRGSEQGEKSDRVSIKDNQKDRTFTVTMEGLRRDDADVYWCGIERRGPMLGTQVKVIVDPEGAASTTASSPTNSNMAVFIGSHKRNHYMLLVFVKVPILLILVTAILWLKGSQRVPEEPGEQPIYMNFSEPLTKDMAT [D112M] | with no effect
MWLPPALLLLSLSGCFSIQGPESVRAPEQGSLTVQCHYKQGWETYIKWWCRGVRGDTCKILIETRGSEQGEKSDRVSIKDNQKDRTFTVTMEGLRRDDADVYWCGIERRGPDLGTQVKVIVDPEGAASTTASSPTNSNMAVFIGSHKRNHYMLLVFVKVPILLILVTAILWLKGSQRVPEEPGEQPIYMNFSEPLTKDMAT [W55G] | with no effect
MWLPPALLLLSLSGCFSIQGPESVRAPEQGSLTVQCHYKQGWETYIKWWCRGVRWDTCKILISTRGSEQGEKSDRVSIKDNQKDRTFTVTMEGLRRDDADVYWCGIERRGPDLGTQVKVIVDPEGAASTTASSPTNSNMAVFIGSHKRNHYMLLVFVKVPILLILVTAILWLKGSQRVPEEPGEQPIYMNFSEPLTKDMAT [E63S] | with no effect
MWLPPALLLLSLSGCFSIQGPESVRAPEQGSLTVQCHYKQGWETYIKWWCRGVRWDTCKILIETRGSEQGEKSDRVSIKDNQKDRTFTVTMEGLRRDDADVYGCGIERRGPDLGTQVKVIVDPEGAASTTASSPTNSNMAVFIGSHKRNHYMLLVFVKVPILLILVTAILWLKGSQRVPEEPGEQPIYMNFSEPLTKDMAT [W103G] | with no effect
MWLPPALLLLSLSGCFSIQGPESVRAPEQGSLTVQCHYKQGWETYIKWWCRGVRWDTCKILIETRGSEQGEKSDRVSIKDNQKDRTFTVTMEGLRRDDADVYWCGIERRGPDLGTQVKVIVDPEGAASTTASSPTNSNMAVFIGSHKRNHYMLLVFVLVPILLILVTAILWLKGSQRVPEEPGEQPIYMNFSEPLTKDMAT [K158L] | with no effect

Variants of: B3
Conditions: with clm7_human CD300LB, A8K4G0

Variant | effect of a mutation on the interaction
MTARAWASWRSSALLLLLVPGYFPLSHPMTVAGPVGGSLSVQCRYEKEHRTLNKFWCRPPQILRCDKIVETKGSAGKRNGRVSIRDSPANLSFTVTLENLTEEDAGTYWCGVDTPWLRDFHDPIVEVEVSVFPAGTTTASSPQSSMGTSGPPTKLPVHTWPSVTRKDSPEPSPHPGSLFSNVRFLLLVLLVLPLLLSMLGAVLWVNRPQRSSRSRQNWPKGENQ [E191V] | with no effect
